Tests used:
AUC = target: the molecule itself; test: AUC
SEC-MALS = target: the molecule itself; test: SEC-MALS
crystal structure = target: the molecule itself; test: crystal structure

Protein | binding result (SEC-MALS) | also measured
mouse stomatin domain (amino acids 86–213), stomatin^86–213 (domain or fragment, UniProt P54116 86-213, looked up) PSTDSLIKVDMRTISFDIPPQEVLTKDSVTISVDGVVYYRVQNATLAVANITNADSATRLLAQTTLRNALGTKNLSQILSDREEIAHHMQSTLDDATDDWGIKVERVEIKDVKLPVQLQRAMAAEAEA |  | Kd (AUC): 37 µM
stomatin^86–213 R97D, L109D, L145D (domain or fragment, mouse, UniProt P54116 86-213, looked up) PSTDSLIKVDMDTISFDIPPQEVDTKDSVTISVDGVVYYRVQNATLAVANITNADSATRDLAQTTLRNALGTKNLSQILSDREEIAHHMQSTLDDATDDWGIKVERVEIKDVKLPVQLQRAMAAEAEA | binds | 
stomatin^86–213 T182W (domain or fragment, mouse, UniProt P54116 86-213, looked up) PSTDSLIKVDMRTISFDIPPQEVLTKDSVTISVDGVVYYRVQNATLAVANITNADSATRLLAQTTLRNALGTKNLSQILSDREEIAHHMQSTLDDAWDDWGIKVERVEIKDVKLPVQLQRAMAAEAEA | binds | 
stomatin^86–213 L109D,L145D (domain or fragment, mouse, UniProt P54116 86-213, looked up) PSTDSLIKVDMRTISFDIPPQEVDTKDSVTISVDGVVYYRVQNATLAVANITNADSATRDLAQTTLRNALGTKNLSQILSDREEIAHHMQSTLDDATDDWGIKVERVEIKDVKLPVQLQRAMAAEAEA | binds | 
stomatin^86–213 LI91,92AA (domain or fragment, mouse, UniProt P54116 86-213, looked up) PSTDSAAKVDMRTISFDIPPQEVLTKDSVTISVDGVVYYRVQNATLAVANITNADSATRLLAQTTLRNALGTKNLSQILSDREEIAHHMQSTLDDATDDWGIKVERVEIKDVKLPVQLQRAMAAEAEA |  | binding result (crystal structure): binds
